Substitutions are numbered along the chain they refer to. One block for each binder: values may come before it. Square brackets hold non-standard residues; d marks the D form. Ends that are not written are not given here. Cit = NC(=O)NCCC[C@H](N)C(=O)O
How the values were obtained:
[1] = target: T1, citrullinated histone 2A-derived peptide (SEQ ID NO: 18), C-terminal biotin (human); test: CMC ELISA, biotinylated peptide on NeutrAvidin-coated plate, anti-human-HRP, OD 450 nm, interpolated on the hMQ22.101f/g calibration curve
T1 construct: Captured by its biotin on NeutrAvidin plates (ELISA) or streptavidin biosensors (Octet); also called histone-derived peptide; citrullinated H2A-derived peptide
T1 peptide: SG[Cit]GKQGGKARA-biotin
Protocol: (§1) hMQ22.101j/e samples from week 0, 2, 4, 6 and 8, and hMQ22.101f/g samples from week 0, 3 and 6 were subjected to an in house-validated CMC ELISA. 96-well ELISA plates were coated with NeutrAvidin™ ([…]) by overnight incubation at 4° C. Wells were washed 5 times with PBS-Tween® (polysorbate) 20 (PBS-T) and blocked by a 2 hour incubation with PBS-T+1% Bovine serum albumin (BSA) at room temperature (RT). After 5 more washes with PBS-T, wells were incubated for 1 hour at RT with a histone-derived peptide (SEQ ID NO 18: SGXGKQGGKARA), containing a citrulline (X) at position 3 and a C-terminal biotin (40 ng/well) in PBS-T+0.2% BSA. After another 5 washes with PBS-T, a calibration curve made from a reference lot of hMQ22.101j/e or hMQ22.101f/g by adding to the wells starting at […] and further diluted at a 1:1 ratio until reaching a concentration of 0.66 ng/ml in PBS-T+0.2% BSA. Spiked quality control (QC) samples made from the same reference lot hMQ22.101j/e or hMQ22.101f/g at higher (HQC, 250 ng/ml), middle (MQC, 50 ng/ml), lower (LQC 3.75 ng/ml) and lower limit quality control (LLQC, 1.25 ng/ml) were diluted in PBS-T+0.2% BSA and added to the plate as well. These QC samples were used in order to validate the ELISA results.
(§2) Finally, accelerated stability samples that had been incubated for 0, 2, 3, 4, 6 and 8 weeks at 37° C. were added to the same plate at a concentration of 40 ng/ml in PBS-T+0.2% BSA and incubated for 2 hours at RT. Wells were washed 5 times with PBS-T and incubated with rabbit anti-human-HRP antibody (1:12.000 in PBS-T+0.2% BSA) for 1 hour at RT followed by 3 washes with PBS-T and 3 washes with PBS. Wells were incubated 10 min with TMB substrate before stopping the reaction with 2 M H₂SO₄ after which the optical density was measured at wavelength of 450 nm. A sigmoidal calibration curve was plotted and fitted using the values from the serial diluted reference antibody. Concentrations of the QC samples and accelerated stability samples were recalculated using the equation from the sigmoidal fitted curve.

[2] = target: T2, citrullinated histone 4-derived peptide (SEQ ID NO: 20), C-terminal biotin (human, citrulline at position 3; biotin at the C-terminus); test: Octet RED96 off-rate screen, biotinylated peptide on streptavidin biosensors, antibody 72 nM, 30 C
T2 construct: Immobilized on streptavidin biosensors (Octet RED96); also called H4-derived peptide; N-terminal histone 4 peptide
T2 peptide: SGXGKGGKGLGK
Protocol: (§3) Off-rate screening of the isomerization-mutated antibodies was performed on an Octet® RED96 (biomolecule detection system) instrument (Pall ForteBio). All measurements were performed at 30° C. Streptavidin (SA) biosensors were first washed for 50 sec with PBS. 1 μg/ml N-terminal histone 2A (SEQ ID NO: 18) and histone 4 (SEQ ID NO: 20) peptides, containing both a citrulline at position 3 and a biotin at the C-terminus, were immobilized on SA biosensors for 200 sec, washed with PBS for 50 sec and excess reactive streptavidin molecules blocked with EZ-Link™ biocytin for 200 sec. After two additional 50 sec wash steps in PBS, antibodies at a concentration of 72 nM diluted in PBS were allowed to bind to the biosensors for 200 sec. Sensors were subsequently placed in PBS for 4000 sec in order to measure their dissociation rates.
(§4) Background signals generated with non-coated biosensors, which have been exposed to the various antibodies as well as signals from coated biosensors that have not been exposed to the various antibodies, have been subtracted before dissociation curves for each antibody were plotted. Both histone 2A and histone 4 dissociation rates constants (kdis×E-07 (1/s)) for each antibody were calculated applying a 1:1 interaction model (fitting local, full) using ForteBio data analysis software 8.1.

[3] = target: T1, citrullinated histone 2A-derived …; test: CMC ELISA, biotinylated peptide on NeutrAvidin-coated plate, anti-human-HRP, OD 450 nm, interpolated on a calibration curve
Protocol: as §1, with “Spiked quality control (QC) samples made from the same reference lot hMQ22.101j/e or hMQ22.101f/g at higher (HQC, 250 ng/ml), middle (MQC, 50 ng/ml), lower (LQC 3.75 ng/ml) and lower limit quality control (LLQC, 1.25 ng/ml) were diluted in PBS-T+0.2% BSA and added to the plate as well. These QC samples were used in order to validate the ELISA results.” left out
Finally, accelerated stability samples that had been incubated for 0, 2, 3, 4, 6 and 8 weeks at 37° C. were added to the same plate at a concentration of 40 ng/ml in PBS-T+0.2% BSA and incubated for 2 hours at RT. […] Wells were incubated 10 min with TMB substrate before stopping the reaction with 2 M H₂SO₄ after which the optical density was measured at wavelength of 450 nm. […]

[4] = target: T1, citrullinated histone 2A-derived …; test: Octet RED96 off-rate screen, biotinylated peptide on streptavidin biosensors, antibody 72 nM, 30 C
Protocol: as §3, §4

[5] = target: T1, citrullinated histone 2A-derived …; test: CMC ELISA, biotinylated peptide on NeutrAvidin-coated plate, anti-human-HRP, OD 450 nm
Protocol: as §1, §2

B1: hMQ22.101f/LC17 (antibody, V domains shown)
VH: RIQLVQSGAEVKKPGASVKVSCKASGYTFTNYGMHWVRQAPGQGLEWMGWINTYSGEATYAQKFQGRVTMTRDTSISTAYMELSRLRSDDTAVYYCLRGYTYQSFDEGGDYWGQGTLVTVSS
VL: DVVMTQSPLSLPVTLGQPASISCRSSQSLLDTDGKTYLNWFQQRPGQSPRRLIYLVSKLDSGVPDRFSGSGSGTDFTLKISRVEAEDVGVYYCWQGTHFPYTFGQGTKLEIK
notes: also called isomerization mutant; heavy chain hVH22.101f with light chain hVL22.101LC17
binding result [1]: binds

B2: hMQ22.101f/g (antibody, V domains shown)
VH: B1 VH
VL: B1 VL with T32S
notes: Full-size humanized antibody; also called humanized therapeutic antibody with heavy chain hVH22.101f and light chain hVL22.101g; tACPA
binding result [2]: binds
binding result [3]: binds

B3: hMQ22.101f/LC27 (antibody, V domains shown)
VH: B1 VH
VL: B1 VL with G34A
notes: also called isomerization mutant; heavy chain hVH22.101f with light chain hVL22.101LC27
binding result [1]: binds

B4: hMQ22.101f/LC42 (antibody, V domains shown)
VH: B1 VH
VL: B1 VL with T32N
notes: also called isomerization mutant; heavy chain hVH22.101f with light chain hVL22.101LC42
binding result [1]: binds

B5: hMQ22.101f/LC41 (antibody, V domains shown)
VH: B1 VH
VL: B1 VL with T32A
notes: also called development candidate; isomerization mutant
binding result [1]: binds

The remaining lines, values ahead:

binding result [4]: binds
binding result [2]: binds
B6: hMQ22.101j/LC42 (antibody, V domains shown)
VH: B1 VH with R1Q, I2V
VL: B1 VL with T32N
notes: also called isomerization mutant; heavy chain hVH22.101j with light chain hVL22.101LC42

binding result [2]: binds
binding result [3]: binds
B7: hMQ22.101j/e (antibody, V domains shown)
VH: B1 VH with R1Q, I2V
VL: B1 VL with L30V, T32S
notes: Full-size antibody with full-length human heavy and light chains; also called humanized therapeutic antibody with heavy chain hVH22.101j and light chain hVL22.101e; tACPA

binding result [5]: binds
B8: hMQ22.101j/h (antibody, V domains shown)
VH: B1 VH with R1Q, I2V
VL: B1 VL with L30V, D31A, T32S
notes: also called VL CDR1 aspartate-mutated antibody (DS site to AS)

binding result [4]: binds
binding result [2]: binds
B9: hMQ22.101j/LC41 (antibody, V domains shown)
VH: B1 VH with R1Q, I2V
VL: B1 VL with T32A
notes: also called isomerization mutant; heavy chain hVH22.101j with light chain hVL22.101LC41

binding result [5]: binds
B10: hMQ22.101j/j (antibody, V domains shown)
VH: B1 VH with R1Q, I2V
VL: B1 VL with L30V, D31S, T32S
notes: also called VL CDR1 aspartate-mutated antibody (DS site to SS)

binding result [4]: binds
binding result [2]: binds
B11: hMQ22.101j/LC27 (antibody, V domains shown)
VH: B1 VH with R1Q, I2V
VL: B1 VL with G34A
notes: also called isomerization mutant; heavy chain hVH22.101j with light chain hVL22.101LC27

binding result [5]: binds
B12: hMQ22.101j/i (antibody, V domains shown)
VH: B1 VH with R1Q, I2V
VL: B1 VL with L30V, D31E, T32S
notes: also called VL CDR1 aspartate-mutated antibody (DS site to ES); heavy chain hVH22.101j with light chain hVL22.101i
